The text below walks through data of the DeepSol protein solubility set.

A short description of the data set: soluble on expression in E. coli; label from the status in PepcDB or PDB records.
Turning to “MELTLESQGYLESLYRAYLEDPLSLPEDWRRYFSALTLEDLEDGRRERQAAPLPGEALDLGFLLKVEALRQAYRELGHLAARIDPLGRERPRPKALSLEAHGLSPEDLKRPLPPLFGAPTLGALLERLEATYLGPVGFEVAHVEPEERAWLLSRIEAPWPKPAPEVRRRVLRSLLQASLFEAFLQRKYLGAKTFSVEGLESLIPLLQEAVQEAARFGVREVVLGMAHRGRLNVLAHVVEKPFEAIFREFEELFPEGYVGDVKYHLGHSTDVETPWGPVHVSLNFNPSHLEFVNPVALGRVRAKQDRFGDRERKRGLAVLVHGDAAFIGEGIVQETLNLSQLPGYRVGGTLHVVANNQLGFTTLPSEYTSSRYPTDVAKMVGAPIFHVNAEALDELLFVLALALEYRSRYGKDVVIDLVGYRRRGHNETDEPTFTQPGMYALIAKKPEPWRVYAERLEAEGLVSEEELKAWQEAYLERLESEFARVKAEATPVVYSTLGGVWQGYVGGPDHLVPEADTAFPKEGLKNLLVRLSSVPEGFQVHPKLKRFLEARREMAEEKRPVDWATAEALAFATLAVEGHRVRLTGQDALRGTFTQRHAALYDYRTGERYIPLQHLAEGQAEVEIHNSPLSEAGVLGFEYGYSLDYPEGLVLWEAQFGDFVNVAQVYIDQFLASAEVKWNRLSGLVLLLPHGLEGQGPEHSSARLERFLQLAAKDNLQVAYPTTPAQFFHLLRRQVKRKIRKPLVVMTPKSLLRHPEVVSALEELAEGRFQKVIPERVKGARKVLLTSGKVYYDLLQKRKELQAEDVAILRLELLYPFPEAELQEALGAYPKKVPVVFVQEEPVNQGAWWYLSARFCGEIYGHPFSVVARPESPSPAVGSSKVHKLEQEELLEEAFR”, the “soluble on expression in E. coli” value is “soluble”.
Turning to “GMEEINKYIQNSSETGGEIYNLIEELFPICRSITGNGVRKTMDIIRKHIPLEIHEVKSGTKVFDWTVPKEWNIKDAYVRNSKGEKVIDFKENNLHVMSYSVPVHKTMTLDELKPYLHTIPGNKDRIPYLTSYYKENWGFSLTQNKFDELCDDDYEVVIDSSLEDGSLTYGEYYIRGELEEEILLTTYTCHPSMCNDNLSGVALITFIAKALSKLKTKYSYRFLFAPETIGSITWLSRNEDKLKNIKMGLVATCVGDAGIKNYKRTKFGDAEIDKIVEKVLMHCGSEYYVADFFPWGSDERQFSSPGINLSVGSLMRSCYGFDGYHTSADNLCYMNKDGLADSYKTYLEVIYTIENNRTYLNLNPKCEPQLGKRGIYRMIGGGSDYPFDEFAMFWVLNMSDGKNSLLDIAYKSGMEFRRIKYAADALYRVELLKLV”, the “soluble on expression in E. coli” value is listed as “soluble”.
Regarding “MGSDKIHHHHHHMSTEHLLLVSLLKKLKDDALVLPTLPEVAMRVQEVVGRSDASLKQVAEVIGQDAAISARIIKVANSALYSRGVPAESINSAVSRIGLIQIKSIATSVAMEQLFISTNEMVWEVMDEVWRTSIDVTAAACAMLQMYNKRHSTSRLNFDTLTLAGLVHNIGALPVLTEAEAQPHLFTSIDQLRALVRKMQGPLGRAVLKSWDFSTEVMEVVERWADLPYLPDHVTYLDFIRAAAFYTGELRAGTELEQRLGVFVARGLPVTTDDLASDEFMEKFHSIRESYQ”, the “soluble on expression in E. coli” value was “not soluble”.
As to “MGSDKIHHHHHHMFLRNMWYVAAFSADVKPGKCLARTFLNEPVVLFRTASGSLGALIDRCSHRAMPLSEGHVDGDIIRCPYHGLEFNAAGVCAHIPGQERIPAAANVRSYPVSERDGLIWIWMGEPEKADLRSIMSNPEHRDPGWSWRPYYMHVNSNWQLLVDNILDLTHVAYIHANTIGGNPQTHFNADMSVQFDGEKVTLLRKMPNSVPPKTYVAAGGFKGNVDRWQMVEYRPCGGNVLRVNAGACEVGTGAYEGRRDNGFTLLNVHGVTPETETTTHYIWTICTDAPRESGVPDMLFDQFYETICEDERALEAQQRRINDMPDMRFVGIASDGAVSRARLLLERLHENETAVTS”, the “soluble on expression in E. coli” value is recorded as “not soluble”.
Regarding “MRGSHHHHHHGSIQKTTIAADSSSKPRGINYDTGIPFNVLIVDDSVFTVKQLTQIFTSEGFNIIDTAADGEEAVIKYKNHYPNIDIVTLDITMPKMDGITCLSNIMEFDKNARVIMISALGKEQLVKDCLIKGAKTFIVKPLDRAKVLQRVMSVFVK”, the “soluble on expression in E. coli” value is “soluble”.
For the sequence “SGFNHVKPTEYKPRLLHISGDKNAKVAEVPLATSSLNSGDCFLLDAGLTIYQFNGSKSSPQEKNKAAEVARAIDAERKGLPKVEVFCETDSDIPAEFWKLLGGKGAIAAKHETA”, the “soluble on expression in E. coli” value is listed as “soluble”.
Consider “DKTVKRAVPFKIIKMIKELDLSFEPQLELARDIFLFSFYTRGMSFIDMAHLKKSNLQNGILTYSRKKTGQRLTILWEELMQEIVDKYKDDTSEYLLPILRYCDINDRKQYKLRAKQIGRGLNKIGLRLELKAPLTFYVARHSWASIAQDRKVSTDIIREGLGHDNEKTTHIYLASISTSQIDRANQIILRGL”, for which the “soluble on expression in E. coli” value was “soluble”.
With “MIKVGICDTTFARYDMGGAAIDELKKHTAGIKIIRRTVPGIKDLPVACKKLIEEEGCEMVMALGMPGPEEKDKVCAHEASTGLIQAQLMTNTHILEVFVHEDEEDDPEELKVLADNRAREHAQNLIMMLFKPDRLTREAGMGLREGKPDAGPL”, the “soluble on expression in E. coli” value was “not soluble”.
With “MKPLPDYNHSVVEQLNALTAAGTLQADAAQLGVAAHLDRILADLKARKPARKKSALGWMFARKAGPAAFVKGLYVHGSVGRGKTMLMDMFYEMAPVSSKRRCHFHEFMADVHNRVHTHRQKLKNGETKQADPIPPVAAQLLAEAELLCFDEFTVTDIADAMILARLFSELFANGCTLVTTSNVVPDNLYKDGLNRGLFLPFVDLLKKYVEVVTLDSPTDYRMEKLESLPVYITPLDGSADQAMDMAWRHMTAGHLVAPTEIPMKGRSILVPRRQRPGCPFFLFRPLRKAARSFRLSRHRQSFRYGLHRSHSASQCRQALEHHHHHH”, the “soluble on expression in E. coli” value is listed as “soluble”.
Regarding “MASKRLGKQTVMLQNPPRITSTASIVGPKEGKGPLRLFFDNIIEDEMWGEKSWEKAESKLIRETFSKVLQKGNKTSQEIDYVISGDLLNQCIAANFGLRESDVPFFGVYGACSTIAESMSIGAMLVDGGFADNVVCITSSHFCSAEKQFRFPLELGTQRPPSAQWTVTGSGGVLISNDGSGPYITHITTGKIVDMGIKDANNMGAAMAPAAVDTIVTHFKDTGFTPESYDLILTGDLGAIGREICVELTREQGFNIENIYNDCGLMIYDREKQDTHAGGSGCGCAATVFAGFVYKKLMDGTLKNVLFVATGALLSPVSTQQGESIPSIAHAISITTSPER”, the “soluble on expression in E. coli” value is on record as “soluble”.
As to “MCASFSPTLDSRSRQLLRTLISCYIQNGEPIGSKTLAQQAGLDISPATIRNILADLEELGLLNSPHTSAGRVPTAHGYRMFVDSLVQMQPPSEDDIRRLRVEMTGGGTQTLLGSASEILSAMTHFVGVVSAPRREQFVFRHIDFVPLDARQIMAILIFADNEVQNRVIEPRRVYEPGELERVSNYLNAHFIGRTLADIRTTVLCELRKAKDEMEQLLAHSLDLASQMLVPNDSEDIVVTGQTRLMALQDLSDMDRLRELFEIFASKREILQLLERTIDAPGVRIFIGEETGMVSMEDISLVTAPYAAHGQVLGVLGVIGPKRMAYDRVIPLVQVVAQVLGTALEPPTMP”, the “soluble on expression in E. coli” value was “not soluble”.
Consider “MVGGMMESYSKFHTILNELKHSAAQFDRQRGEHHRPLFDEVLFHCHGKLLTPCVEEAHSTLQALIREKESGRLTALRAEYLSERLLAQIAALTRELSTQNVRRNEPKPHAYFKKPINELYQELAQHQDWERRLMDLVRDKALLLEQASATEKAAAQQALLQSEQRLNRCREAKIKIEKRITTQERKA”, for which the “soluble on expression in E. coli” value is “not soluble”.
Consider “MGSDKIHHHHHHMIDLQEILANMNPNQKINYDRVMQQMAKVWEKESVRPSILMHVCCAPCSTYTLEYLTQFADITVYFANSNIHPKDEYHRRAYVTQQFVSEFNAKTGNTVQFLEADYVPNEYVRQVRGLEEEPEGGDRCRVCFDYRLDKTAQKAVELGFDYFASALTISPHKNSQTINDVGIDVQKVYTTKYLPSDFKKNNGYRRSVEMCEEYDIYRQCYCGCVYAAKMQGIDLVQVKKDAKAFMADKDLDNDFTHIRFSYRGDEM”, for which the “soluble on expression in E. coli” value is “not soluble”.
As to “MIVALGADLVEIARVERLLSRHGERALRRLFHEEEVAYALARQNPFPSLAARLAAKEAFQKCWPESLSWKEVWVGMEGKRPALRFAPRIEARMAEEGLFAHLSLSHERSHALAVVVLEARARGGG”, the “soluble on expression in E. coli” value was “soluble”.
On to “MRGPLLPPTVPGWRSRAERFDMAVLEAYEPIERRWQERVSQLDIAVDEIPRIAAKDPESVQWPPEVIADGPIALARLIPAGVDVRGNATRARIVLFRKPIERRAKDTEELGELLHEILVAQVAIYLDVDPSVIDPTIDD”, for which the “soluble on expression in E. coli” value is “soluble”.
“TLTKHEQDILLKELGPHVDTPAHIVETGLGAYHALFTAHPQYISHFSRLEGHTIENVMQSEGIKHYARTLTEAIVHMLKEISNDAEVKKIAAQYGKDHTSRKVTKDEFMSGEPIFTKYFQNLVKDAEGKAAVEKFLKHVFPMMAAEI”: the “soluble on expression in E. coli” value is “soluble”.
Take “MERSQCGSRDRGVSGRPHLAPGLVVAAPPPPSPALPVPSGMQCARCRNHGVVSALKGHKRFCRWRDCACAKCTLIAERQRVMAAQVALRRQQAQEESEARGLQRLLCSGLSWPPGGRASGGGGRAENPQSTGGPAAGAALGLGALRQASGSATPAFEVFQQDYPEEKQEQKESKCESCQNGQEELISKSHQLYLGSSSRSNGVIGKQSIGSSISEYSNKPDSILSPHPGEQSGGEESPRSLSSSDLESGNESEWVKDLTATKASLPTVSSRPRDPLDILTKIFPNYRRSRLEGILRFCKGDVVQAIEQVLNGKEHKPDNRNLANSEELENTAFQRASSFSLAGIGFGTLGNKSAFSPLQTTSASYGGDSSLYGVNPRVGISPLRLAYSSAGRGLSGFMSPYLTPGLVPTLPFRPALDYAFSGMIRDSSYLSSKDSITCGRLYFRPNQDNP”: the “soluble on expression in E. coli” value was “soluble”.
The entry for “GMSEPVFPTPEAAEDAFYAAFEARSLDDMMAVWARDDHVACIHPLAAPLNGRAAVAAGWRSMFGAAGRFRLQVKAVHEIRQADHVIRIVDEFLTIGDETAPRPAILATNVYRREADGWRMVLHHASPLQVGAKAGADTPPVVFH” is “soluble”; for “MSLTVPTILVIDDDVQVCETIASLLARLRYACETAHSLEQGLAILETAPVDVVFLDVRLPDGNGIDALPRIRQAPSHPEVIILTGEGDPDDAELAIQGGVWDYLVKPTPIKQTTLTLARALQYRAEKLSKGGGGTVALDLDGVVGISPSMRQCFDLVANAATTEANVLVTGETGTGKELLARTIHRNSPRRNGPFVVVDCAALTESLVESTLFGHKRGAFTGAQQDRDGLVKLADGGTLFLDEVGEMPLAIQRAFLRILQERSFRPVGGTQEIRSDFRLISATNRDLDAMVERGEFRKDLLFRLNTVHVELPPLRTRPEDLKPLAIFHMNRLAEQYGVPAKGFATDFFQQLAQYDWPGNVREFFNVLERSFVISGLEGVLYAMHLPQDVRIKITRASLARSEGHHHHHH” it is “soluble”.
For “MAHHHHHHMKGHIFYDVTEKGTPPAEYFVSSTGWGMSVVSPPNVGNCDEWETQVKAERIIVNCPDEMDVKAMCAWMERDGTTDGQAECWKMVEERMDKVGPIPRHIFDANKFVAHSAAIEDALDGINSRDGERHFTHRGVRLWYSGDPPQKVVSVVRARGEFGAGGFLNAAISVCLGRRIAHYFGGRDE”, the “soluble on expression in E. coli” value was “not soluble”.
As to “MALDLTGYLDRINYRGATDPTLDVLRDLVSAHTGAIAFENLDPLMGVPVDDLSAEALADKLVDRRRGGYCYEHNGLIGYVLAELGYRVRRLAGRVVWLAPPDAPTPAQTHTVLAVTFPGCQGPYLVDVGFGGMTPTAPLRLETGTVQQTALEPYRLDDRGDGLVLQAMVRDEWQALYEFSTLTRPQVDLRVGSWFVSTHPTSHFVTGLMAATVADDARWNLMGRNLAIHRRGGTEKILLEDAAAVVDTLGDRFGINVADVGERGRLEARIDKVCFGAENR”, the “soluble on expression in E. coli” value is listed as “soluble”.
